# Results taken from US20240109955A1 (published 2024).
# Molecular target: SARS-CoV-2 spike protein, original Wuhan strain (WT) (SARS-CoV-2, UniProt P0DTC2 14-1273)
# Assay: cell-based or functional assay
binder,measurement,value
"A19-61.1 (antibody, V domains shown) VH: QVQLVESGGGVVQPGRSLRLSCAASGFTFSSYAFHWVRQAPGKGLEWVAVISYDGSNQYYADSVKGRFTISRDNSKNTLYLQMNSLRADDTAVYYCARDLAIAVAGTWHYYNGMDVWGQGTTVTVSS VL: DIQMTQSPSSVSASVGDRVIITCRASQGISSWLAWYQQKPGKAPKVLIYDASSLQSGVPSRFSGSGYGTDFTLTISSLQPEDSATYYCQQAKSFPITFGQGTRLEIK","IC50, pseudovirus neutralization",0.172 nM
